From publication PMC3646729, “Recruitment, Assembly, and Molecular Architecture of the SpoIIIE DNA Pump Revealed by Superresolution Microscopy” (PLoS Biology, 2013)

Target: the molecule itself
Experiment: two-photon number and brightness analysis (N&B, fluorescence fluctuation microscopy); live B. subtilis cells with SpoIIIE-GFP; clusters at sporulation and division septa, after induction of sporulation or in exponential growth; brightness normalised to monomeric freely diffusing GFP; excitation at 930 nm, 50 raster scans

B1: SpoIIIE-GFP fusion (natural protein, B. subtilis, UniProt P21458 1-787, looked up)
chain: MAKKKRKSRKKQAKQLNIKYELNGLLCIAISIIAILQLGVVGQTFIYLFRFFAGEWFILCLLGLLVLGVSLFWKKKTPSLLTRRKAGLYCIIASILLLSHVQLFKNLTHKGSIESASVVRNTWELFLMDMNGSSASPDLGGGMIGALLFAASHFLFASTGSQIMAIVMILIGMILVTGRSLQETLKKWMSPIGRFIKEQWLAFIDDMKSFKSNMQSSKKTKAPSKKQKPARKKQQMEPEPPDEEGDYETVSPLIHSEPIISSFSDRNEEEESPVIEKRAEPVSKPLQDIQPETGDQETVSAPPMTFTELENKDYEMPSLDLLADPKHTGQQADKKNIYENARKLERTFQSFGVKAKVTQVHLGPAVTKYEVYPDVGVKVSKIVNLSDDLALALAAKDIRIEAPIPGKSAIGIEVPNAEVAMVSLKEVLESKLNDRPDAKLLIGLGRNISGEAVLAELNKMPHLLVAGATGSGKSVCVNGIITSILMRAKPHEVKMMMIDPKMVELNVYNGIPHLLAPVVTDPKKASQALKKVVNEMERRYELFSHTGTRNIEGYNDYIKRANNEEGAKQPELPYIVVIVDELADLMMVASSDVEDSITRLSQMARAAGIHLIIATQRPSVDVITGVIKANIPSRIAFSVSSQTDSRTILDMGGAEKLLGRGDMLFLPVGANKPVRVQGAFLSDDEVEKVVDHVITQQKAQYQEEMIPEETTETHSEVTDELYDEAVELIVGMQTASVSMLQRRFRIGYTRAARLIDAMEERGVVGPYEGSKPREVLLSKEKYDELSS
notes: SpoIIIE DNA translocase of Bacillus subtilis (strain PY79 derivative); the SpoIIIE gene was replaced by a SpoIIIE-GFP fusion, no wild-type copy left; The fusion is said to be fully functional, so it is probably the whole protein; also called SpoIIIE ATPase; SpoIIIE DNA translocase; source: B. subtilis PY79 derivative, SpoIIIE-GFP fusion under the endogenous promoter, in live cells
stoichiometry N: 6
